According to the supplement of paper PMC10899765:

Columns and labels:
Conditions in all cases: 20 nM; 72 h
MCF10A [1] = assay: 5+ nucleoli phenotype percent effect (relative to siNT 0% and siKIF11 100%); higher = more cells with five or more nucleoli
Method: (§1)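 After 72 h, cells were fixed and stained with Hoechst and anti-fibrillarin, and nucleoli per nucleus were counted with CellProfiler. Values are plate-adjusted percent effect for the one-nucleolus and 5+ nucleoli phenotypes, normalised to siNT (0%) and to the positive controls siNOL11 or siKIF11 (100%), as the mean of biological triplicates. Percent viability is the nuclei count relative to siNT.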

MCF10A [2] = assay: percent viability (nuclei count relative to siNT); higher = more viable cells
Method: as §1

MCF10A [3] = assay: one-nucleolus phenotype percent effect (relative to siNT 0% and siNOL11 100%); higher = more cells with one nucleolus (ribosome biogenesis inhibition)
Method: as §1

Sequence	5+ nucleoli phenotype percent effect (MCF10A [1]) [%]	percent viability (MCF10A [2]) [%]	one-nucleolus phenotype percent effect (MCF10A [3]) [%]
UAGGGGCAGCAGAGGACCUGGG [hsa-miR-4688]	8.84	17.5	23.4
UAGGGGGCGGCUUGUGGAGUGU [hsa-miR-6805-5p]	0.0052	27	18.2
UAGGGGGUGGCAGGCUGGCC [hsa-miR-6732-5p]	-15.7	33.3	17.1
UAGGGGUGGGGGAAUUCAGGGGUGU [hsa-miR-6782-5p]	1.01	26.5	-3.68
UAGGGUACUCAGAGCAAGUUGU [hsa-miR-6841-5p]	14.6	63.6	-4.08
UAGGGUAGACACUGACAACGUU [hsa-miR-6755-5p]	-14.8	19.9	25
UAGGUAGAGUGUGAGGAGGAGGUC [hsa-miR-6831-5p]	27.5	53.8	-21
UAGGUAGUUUCAUGUUGUUGGG [hsa-miR-196a-5p]	23.8	33.5	-16.9
UAGGUAGUUUCCUGUUGUUGGG [hsa-miR-196b-5p]	54.4	41.4	-8.68
UAGGUGGCAGAGGAGGGACUUCA [hsa-miR-6865-5p]	-3.22	11.7	20.5
UAGGUGGCGCCGGAGGAGUCAUU [hsa-miR-6815-5p]	-6.84	13.2	20.3
UAGGUUAUCCGUGUUGCCUUCG [hsa-miR-154-5p]	-28.7	32.9	34.9
UAGUACCAGUACCUUGUGUUCA [hsa-miR-624-5p]	-9.19	26.3	-2.83
UAGUACUGUGCAUAUCAUCUAU [hsa-miR-1278]	-12.8	73.4	-1.62
UAGUAGACCGUAUAGCGUACG [hsa-miR-411-5p]	15.2	69.2	-6.18
UAGUCCCUUCCUUGAAGCGGUC [hsa-miR-2114-5p]	-46	25.2	43.8
UAGUGAGUUAGAGAUGCAGAGCC [hsa-miR-3174]	-38.2	38.1	12.5
UAGUGCAAUAUUGCUUAUAGGGU [hsa-miR-454-3p]	54.6	121	-20.8
UAGUGGAUGAUGCACUCUGUGC [hsa-miR-3681-5p]	-13.2	50	15.8
UAGUGGUCAGAGGGCUUAUGA [hsa-miR-6718-5p]	-44.7	18.9	39.8
UAGUGGUCCUAAACAUUUCACA [hsa-miR-203b-5p]	-42.9	15.6	58.6
UAGUUCUUCCCUUUGCCCAAUU [hsa-miR-5584-3p]	-41	32.6	5.26
UAUAAAAUGAGGGCAGUAAGAC [hsa-miR-3163]	30.5	53	-19.2
UAUACAAGGGCAAGCUCUCUGU [hsa-miR-381-3p]	3.97	90.7	-13.7
UAUACAAGGGCAGACUCUCUCU [hsa-miR-300]	-6.47	68.9	-10.6
UAUACCUCAGUUUUAUCAGGUG [hsa-miR-875-5p]	32.3	119	-18.7
UAUAGAGAGCAGGAAGAUUAAUGU [hsa-miR-3976]	31.2	78.3	-15.3
UAUAGGGAUUGGAGCCGUGGCG [hsa-miR-135a-3p]	4.73	63.5	13.5
UAUAUAUACAGCCAUGCACUC [hsa-miR-5011-5p]	39.8	74.6	-18.5
